{"source": "paper PMC4457900", "about": "“Preclinical Pharmacokinetic Studies of the Tritium Labelled D-Enantiomeric Peptide D3 Developed for the Treatment of Alzheimer´s Disease” (PLoS ONE, 2015)", "key": {"[1]": {"target": "T1, human serum albumin (HSA) (Homo sapiens, UniProt P02768)", "T1 construct": "purchased Sovicell GmbH, Leipzig, Germany", "assay": "Plasma protein binding, TRANSIL XL kit, HSA", "assay_type": "in vitro ADME", "conditions": "5 μM D3 (with 3H-D3) in PBS, LSC of supernatant, above detection limit of the kit, n = 2", "method": "Plasma protein binding was estimated by incubation of D3 with varying concentrations of protein using TRANSIL^XL binding kits (Sovicell GmbH, Leipzig, Germany). KD values were determined by titrating a constant drug concentration against different concentrations of human serum albumin (HSA) and α1-acid glycoprotein (AGP). Experiments were performed as recommended for the kit. To obtain the desired D3 stock solution of 80 μM, non-radioactively labelled D3 was dissolved in PBS and 5% ^3H-labelled D3 solution was added for detection purposes. A final concentration of 5 μM D3 was applied in the assay. After incubation and centrifugation 15 μl supernatant were taken and scintillation cocktail was added. This was done in triplicate. Radioactivity was then quantified using liquid scintillation counting. After measuring the disintegrations per minute (dpm) of the supernatant containing the unbound peptide, the D3 fraction bound to the titrated protein was calculated and plotted against the protein concentrations. […]\nFor bioavailability determination, the unbound fraction of D3 (fu) was calculated using the equation below: fu=100*CD3−KD−Cphysiol/2+KD*CD3+(CD3−KD−Cphysiol/2)^2/CD3 (1) For very low D3 concentrations in blood (CD3), Eq (1) can be simplified by Eq (2), where the unbound fraction of D3 can be calculated independently of the applied D3 concentration. […]"}, "[2]": {"assay": "Proteolytic stability in mouse plasma (TLC, autoradiography)", "assay_type": "in vitro ADME", "conditions": "freshly prepared mouse plasma, 37°C, 1 μCi (approx. 0.08–0.8 μg) peptide with 1 μl plasma, D3 up to 2 days, L-form 0 and 60 min, 3H-autoradiography", "method": "In order to study the proteolytic stability of peptides in biological extracts, tritium labelled peptides were incubated with liver microsomes (pooled from mouse (CD-1), Sigma-Aldrich), freshly prepared mouse plasma or extracts of brain, liver and kidney at 37°C for different time periods (from 0 min to 2 days). 1 μCi (approx. 0.08–0.8 μg) radioactive labelled peptide was mixed with 1 μl microsomes stock solution, plasma or organ extracts, respectively (in great excess to peptide). Mixtures containing tritium-labelled peptides were applied onto HPTLC Silica Gel 60 plates (OMNILAB, Essen, Germany) for thin layer chromatography (TLC) with a mobile solvent (2-Butanol/Pyridine/Ammonia(28%)/Water(39/34/10/26)). After development, a phosphor imaging plate for ^3H-autoradiography (FUJIFILM, Tokyo, Japan) was exposed to the TLC plates for 3 days. Images were acquired with a BAS reader and AIDA software (Raytest, Freiburg, Germany). Retardation factor (Rf) of each substance was defined as the ratio of the migration distance of the centre of a separated spot to the migration distance of the solvent front."}}, "note": "Entries after “also recorded” stand apart in the source; their conditions may differ."}
{"substance": "D3: fully D-enantiomeric peptide identified by mirror-image phage display for binding to Aβ (1–42) (RPRTRLHTHRNR; all residues are D-amino acids (rprtrlhthrnr); tracer form carries 4,5-3H-D-Leu at position 6)", "values": [{"measurement": "Kd", "setting": "[1]", "value": "> 1400", "unit": "µM"}]}
{"substance": "RPRTR-(4,5-^3H-Leu)-HTHRNR [3H-(L)-D3, tritium labelled L-form enantiomer of D3, RPRTR-(4,5-3H-Leu)-HTHRNR]", "values": [{"measurement": "proteolytic degradation in plasma", "setting": "[2]", "value": "significant degradation already after 60 min; also recorded: Obvious proteolytic degradation"}]}
